Experimental data taken from patent US20090041783A1 (MOCHIDA PHARMACEUTICAL, published 2009).

How the values were obtained:
[1] = target: T1, human platelet membrane glycoprotein VI (GPVI) on human platelets (human, UniProt Q9HCN6 21-339); experiment: flow cytometry on human platelets, 3-4 µg/mL antibody, anti-human IgM-FITC
T1 construct: whole, on cells
T1 sequence (looked up): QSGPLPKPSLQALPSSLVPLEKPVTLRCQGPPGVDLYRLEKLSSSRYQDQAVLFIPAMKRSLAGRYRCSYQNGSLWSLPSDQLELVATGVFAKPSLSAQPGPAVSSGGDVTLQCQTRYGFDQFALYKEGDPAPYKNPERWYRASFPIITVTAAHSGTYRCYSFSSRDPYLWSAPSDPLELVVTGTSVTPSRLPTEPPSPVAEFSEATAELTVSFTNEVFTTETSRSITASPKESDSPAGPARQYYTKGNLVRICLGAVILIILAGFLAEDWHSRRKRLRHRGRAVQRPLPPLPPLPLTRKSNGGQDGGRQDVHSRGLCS
Procedure: Cynomolgus monkey and human PRPs prepared by the method described in 18-1 of EXAMPLE 18 were diluted with FACS buffer to make the platelet concentration 3.75×10⁸ cells/mL. To the diluted PRP, cF1232-37-2 (IgM) or cF1232-43-3 (IgM) prepared in the above 29-2 was added at the final concentration of 3-4 μg/mL, and stood at 25° C. for 30 minutes. After incubation, the platelet was washed with FACS buffer. Subsequently, after adding anti-human IgM-FITC (BD Biosciences Pharmingen) and standing at room temperature for 30 minutes, the platelet was washed with FACS buffer and the fluorescence intensity of the platelet was measured with flow cytometer CYTOMICS FC500 (BECKMAN COULTER). As a result, it was confirmed that both antibodies of cF1232-37-2 (IgM) and cF1232-43-3 (IgM) bind to the monkey and the human platelet.

[2] = target: T2, human GPVI extracellular region-human Fc fusion protein (hGPVI-hFc) (human); experiment: ELISA on immobilised hGPVI-hFc, anti-human mu-chain detection
T2 construct: Expressed in COS-1, purified on Protein A; also called GPVI-HHH-hFc; hGPVIHHH-hFc

binding result [1]: binds
binding result [2]: binds
B1: mouse/human chimeric IgM-type F1232-37-2, cF1232-37-2 (IgM) (antibody)
VH: VQLQQSGPELVRPGESVKISCKGSGYTFTDYAIHWVKLSHAKSLEWIGVISIYYDDTNYNQKFKGKATMTVDKSSSTAYLELARLTSEDSAIYYCARRRDSSGPYAMDYWGQGTSVTVSS
VL: DIVLTQSPASLAVSLGQRATISCRASESVDSYGNSFMHWYQQKPGQPPKLLIYRASNLESGIPARFSGSGSRTDFTLTINPVEADDVATYYCQQSNEDPYTFGGGTKLEIKRADAA
chain: not shown
notes: Heavy chain: V region of cF1232-37-2 with human mu-chain constant region (pTK-2820); the CDRs of both clones are printed identical; Human kappa constant region
